The source of these data is EP1192182B1, “PITUITARY ADENYLATE CYCLASE ACTIVATING PEPTIDE (PACAP) RECEPTOR 3 (R3) AGONISTS AND THEIR PHARMACOLOGICAL METHODS OF USE” (priority 1999, dated 2001).

The labels stand for the following.
T1: PACAP-R3 (human, UniProt P41587 24-438)
T1 sequence (looked up): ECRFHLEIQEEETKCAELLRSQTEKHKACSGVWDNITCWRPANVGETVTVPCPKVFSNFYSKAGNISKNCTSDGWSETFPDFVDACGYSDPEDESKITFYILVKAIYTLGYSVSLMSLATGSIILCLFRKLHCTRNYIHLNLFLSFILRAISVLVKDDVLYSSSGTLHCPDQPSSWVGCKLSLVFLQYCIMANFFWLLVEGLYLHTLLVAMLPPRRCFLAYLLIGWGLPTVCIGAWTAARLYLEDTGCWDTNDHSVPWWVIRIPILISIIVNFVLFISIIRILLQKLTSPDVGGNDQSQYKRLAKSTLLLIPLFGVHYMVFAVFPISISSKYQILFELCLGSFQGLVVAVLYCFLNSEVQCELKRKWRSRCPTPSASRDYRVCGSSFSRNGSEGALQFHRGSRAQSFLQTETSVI

No end group written: not given here.

For this assay, the target named is T1, PACAP-R3. In words: cell-based or functional assay.
On to HSDAVFTDNYTRLRKQMAAKKYLNSIYNKR [R3P132], for which the “R3 EC50” value came out at 0.2 nM.

On to HSDAVFTDNYTRLRKQMAAKKYLNSITNKR [R3P129], for which the “R3 Selectivity” value is 50 ratio.

Take HSDAVFTDNYTRLRKQMAAKKYLNSIKNMR [R3P142]: the “R3 Selectivity” value turned out to be 30 ratio.

Turning to HSDAVFTDNYTRLRKQMALKKYLNSIKNKR [R3P104], the “R3 EC50” value was 0.2 nM and the “R3 Selectivity” value was found to be 500 ratio.

Turning to HSDAVFTDNYTRLRKQMAAKKYLNSIKNPR [R3P144], the “R3 EC50” value was 3 nM and the “R3 Selectivity” value came out at 100 ratio.

As for HSDAVFTDNYTRLRKQLAAKKYLNDIKK-NH2 [R3P13], the “R3 Selectivity” value was found to be 33 ratio.

For HSDAVFTDNYTRLRKQMAAKKYLNSIKNFR [R3P137], the “R3 EC50” value was 0.3 nM and the “R3 Selectivity” value was found to be 100 ratio.

In the case of HSDAVFTDNYTRLRKQMAAKKYLNSIANKR [R3P115], the “R3 EC50” value is 6 nM and the “R3 Selectivity” value came out at 50 ratio.

On to HSDAVFTDNYTRLRKQMAAKKYLNSIVNKR [R3P130], for which the “R3 EC50” value was 1 nM and the “R3 Selectivity” value was 40 ratio.

As for HSDAVFTDNYTRLRKQMAMKKYLNSIKNKR [R3P105], the “R3 EC50” value was determined as 0.3 nM.

Regarding HSDAVFTDNYTRLRKQMAAKKYLNSIRNKR [R3P127], the “R3 EC50” value is 0.5 nM and the “R3 Selectivity” value stood at 600 ratio.

Consider HSDAVFTDNYTRLRKQMAAKKYLNSICNKR [R3P116], for which the “R3 EC50” value is 1 nM and the “R3 Selectivity” value was 20 ratio.

On to HSDAVFTDNYTRLRKQMAAKKYLNSIWNKR [R3P131], for which the “R3 EC50” value came to 0.3 nM and the “R3 Selectivity” value amounted to 70 ratio.

As to HSDAVFTDNYTRLRKQVAAKKYLQSILNKR [R3P92], the “R3 EC50” value came to 0.02 nM and the “R3 Selectivity” value worked out at 100 ratio.

Consider HSDAVFTDNYTRLRKQMAAKKYLNSIHNKR [R3P121], for which the “R3 EC50” value is 1 nM and the “R3 Selectivity” value amounted to 50 ratio.

For HSDAVFTDNYTRLRKQMAAKKYLNSIPNKR [R3P125], the “R3 EC50” value amounted to 2 nM and the “R3 Selectivity” value was 30 ratio.

For the molecule HSDAVFTDNYTRLRKQMAAKKYLNSIQNKR [R3P126], the “R3 EC50” value came out at 1 nM and the “R3 Selectivity” value was 200 ratio.

As for HSDAVFTDNYTRLRKQMAAKKYLNSIKNIR [R3P140], the “R3 EC50” value was 0.3 nM and the “R3 Selectivity” value stood at 50 ratio.

Turning to HSDAVFTDNYTRLRKQMAAKKYLNSIKNCR [R3P134], the “R3 EC50” value is 0.4 nM and the “R3 Selectivity” value turned out to be 100 ratio.

For HSDAVFTDNYTRLRKQMAAKKYLNSIFNKR [R3P119], the “R3 EC50” value was found to be 0.5 nM and the “R3 Selectivity” value was found to be 30 ratio.

For the molecule HSDAVFTDNYTRLRKQMAAKKYLNSINNKR [R3P124], the “R3 EC50” value was determined as 0.2 nM and the “R3 Selectivity” value amounted to 15 ratio.

In the case of HSDAVFTDNYTRLRKQMAAKKYLNSIKNER [R3P136], the “R3 Selectivity” value came out at 70 ratio.

For the molecule HSDAVFTDNYTRLRKQMAAKKYLNSIINKR [R3P122], the “R3 EC50” value was 0.2 nM.

With HSDAVFTDNYTRLRKQMAPKKYLNSIKNKR [R3P107], the “R3 EC50” value stood at 200 nM and the “R3 Selectivity” value was found to be 5 ratio.

With HSDAVFTDNYTRLRKQMAFKKYLNSIKNKR [R3P99], the “R3 EC50” value was 1 nM and the “R3 Selectivity” value is 40 ratio.

Turning to HSDAVFTDNYTRLRKQMAKKKYLNSIKNKR [R3P103], the “R3 EC50” value was 0.05 nM and the “R3 Selectivity” value was 8 ratio.

As to HSDAVFTDNYTRLRKQMAAKKYLNSIENKR [R3P118], the “R3 Selectivity” value stood at 30 ratio.

With HSDAVFTDNYTRLRKQMAIKKYLNSIKNKR [R3P102], the “R3 EC50” value is 60 nM and the “R3 Selectivity” value is 5 ratio.

As for HSDAVFTDNYTRLRKQMACKKYLNSIKNKR [R3P94], the “R3 EC50” value stood at 0.09 nM and the “R3 Selectivity” value was determined as 100 ratio.

As for HSDAVFTDNYTRLRKQLAAKKYLNDIKKGGT [R3P12], the “R3 Selectivity” value is > 200 ratio.

For HSDAVFTDNYTRLRKQMAVKKYLNDLKKGGT [R3P14], the “R3 Selectivity” value was 3 ratio.

As to HSDAVFTDNYTRLRKQMAAKKYLNSIKNNR [R3P143], the “R3 EC50” value came to 0.2 nM and the “R3 Selectivity” value worked out at 30 ratio.

In the case of HSDAVFTDNYTRLRKQMAYKKYLNSIKNKR [R3P114], the “R3 EC50” value is 2 nM and the “R3 Selectivity” value came out at 10 ratio.

As for HSDAVFTDNYTRLRKQMAQKKYLNSIKNKR [R3P108], the “R3 EC50” value stood at 300 nM and the “R3 Selectivity” value worked out at 3 ratio.

As to HSDAVFTDNYTRLRKQMAHKKYLNSIKNKR [R3P101], the “R3 EC50” value was 1 nM and the “R3 Selectivity” value was determined as 400 ratio.

As for HSDAVFTDNYTRLRKQMAWKKYLNSIKNKR [R3P113], the “R3 EC50” value stood at 0.3 nM and the “R3 Selectivity” value came to 10 ratio.

For HSDAVFTDNYTRLRKQMAGKKYLNSIKNKR [R3P100], the “R3 EC50” value was found to be 0.3 nM and the “R3 Selectivity” value worked out at 30 ratio.

For the molecule HSDAVFTDNYTRLRKQMAAKKYLNSIKNLR [R3P141], the “R3 Selectivity” value amounted to 100 ratio.

HSDAVFTDNYTRLRKQMATKKYLNSIKNKR [R3P111]: the “R3 EC50” value worked out at 3 nM.

For HSDAVFTDNYTRLRKQMAAKKYLNSIKNHR [R3P139], the “R3 EC50” value was 0.4 nM and the “R3 Selectivity” value was found to be 50 ratio.

As for HSDAVFTDNYTRLRKQMAAKKYLNSIGNKR [R3P120], the “R3 EC50” value came out at 0.2 nM and the “R3 Selectivity” value worked out at 50 ratio.

Regarding HSDAVFTDNYTRLRKQVAAKKYLQSILNK [R3P93], the “R3 EC50” value stood at 0.14 nM and the “R3 Selectivity” value amounted to 40 ratio.

For the molecule HSDAVFTENYTKLRKQLAAKKYLNDLLNGGT [R3P10], the “R3 Selectivity” value was found to be 0.3 ratio.

On to HSDAVFTDNYTKLRKQLAAKKYLNDILNGGT [R3P11], for which the “R3 Selectivity” value was 3 ratio.

On to HSDAVFTDNYTRLRKQMASKKYLNSIKNKR [R3P110], for which the “R3 EC50” value came out at 0.5 nM and the “R3 Selectivity” value stood at 200 ratio.

Turning to HSDAVFTDNYTRLRKQMARKKYLNSIKNKR [R3P109], the “R3 EC50” value came to 10 nM and the “R3 Selectivity” value came out at 100 ratio.

For HSDAVFTDNYTRLRKQMAAKKYLNSISNKR [R3P128], the “R3 EC50” value turned out to be 0.3 nM and the “R3 Selectivity” value worked out at 200 ratio.
